Test results taken from US20220168396A1, “MULTI-RECEPTOR AGONIST AND MEDICAL USE THEREOF” (published 2022).
Numbered stars: 1 amine (or outer) side, 2 acyl side, 3 side chain; on linkers, the order of the positions; unused ones are H or OH. Square brackets hold non-standard residues; d marks the D form. Side chains are listed from the residue outwards. Ends that are not written are not given here. γGlu = O=C(O)[C@H](CCC(=O)[*:2])N[*:1]; AEEA = NCCOCCOCC(=O)O; Aib = CC(C)(N)C(=O)O

T1: human glucose-dependent insulinotropic peptide receptor (human, UniProt P48546)
T1 sequence: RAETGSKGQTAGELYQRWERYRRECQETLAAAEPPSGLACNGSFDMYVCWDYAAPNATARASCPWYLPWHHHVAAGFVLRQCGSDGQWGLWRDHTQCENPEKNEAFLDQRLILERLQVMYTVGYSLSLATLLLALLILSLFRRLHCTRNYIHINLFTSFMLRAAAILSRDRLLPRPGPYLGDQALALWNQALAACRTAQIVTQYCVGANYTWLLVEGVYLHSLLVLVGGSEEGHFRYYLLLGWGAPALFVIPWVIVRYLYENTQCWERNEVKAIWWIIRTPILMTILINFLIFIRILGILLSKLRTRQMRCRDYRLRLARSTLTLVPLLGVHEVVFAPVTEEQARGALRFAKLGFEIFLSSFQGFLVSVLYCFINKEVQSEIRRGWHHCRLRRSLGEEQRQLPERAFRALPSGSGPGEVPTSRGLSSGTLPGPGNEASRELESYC

B1: Compound No. 28 (peptide)
peptide: H-Y[Aib]EGTFTSDYSIYLEKIAAQEFVNWLLAGGPSSGAPPPSK-NH2
modifications: not fully specified (residue 40); printed as H-YAibEGTFTSDYSIYLEKIAAQEFVNWLLAGGPSSGAPPPSK / (OEG-OEG-yGlu-C18-OH)-NH2
B2: Compound No. 30 (peptide)
peptide: H-Y[Aib]EGTFTSDYSIYLEKIAAKEFVNWLLAGGPSSGAPPPS-NH2
modifications: not fully specified (residue 20); printed as H-YAibEGTFTSDYSIYLEKIAAK(OEG-OEG-yGlu-C18-OH)EFVNWLLAG / GPSSGAPPPS-NH2
B3: Compound No. 29 (peptide)
peptide: H-Y[Aib]EGTFTSDYSIYLEKIAAQEFVNWLLAGKPSSGAPPPS-NH2
modifications: not fully specified (residue 30); printed as H-YAibEGTFTSDYSIYLEKIAAQEFVNWLLAGK(OEG-OEG-yGlu-C18-OH) / PSSGAPPPS-NH2

Target: human glucagon-like peptide-1 receptor (human, UniProt P43220)
Experiment: cell-based or functional assay

Binder	Activity for human GLP-1R (EC50 nM), cAMP HTRF [nM]
Y[Aib]EGTFTSDYSIYLDKIAAK([AEEA-AEEA-γGlu-C18‑OH])EFVNWLLAGGPSSGAPPPS-NH2 [Compound No. 60]	0.2
Y[Aib]EGTFTSDYSIYLDKIAAQEFVNWLLAGGPSSGAPPPSK([AEEA-AEEA-γGlu-C18‑OH])-NH2 [Compound No. 62]	0.32
B1	0.074
B2	0.058
B3	0.24
Y[Aib]EGTFTSDYSIYLEKIAAQEFVNWLLAGGPSSGAPPPSK([AEEA-AEEA-γGlu-C20‑OH])-NH2 [Compound No. 74]	0.068
Y[Aib]EGTFTSDYSIYLEKIAAK([AEEA-AEEA-γGlu-C20‑OH])EFVNWLLAGGPSSGAPPPS-NH2 [Compound No. 75]	0.2

Target: T1, human glucose-dependent insulinotropic …
Experiment: cell-based or functional assay

Binder	Activity for human GIPR (EC50 nM), cAMP HTRF [nM]
Y[Aib]EGTFTSDYSIYLDKIAAK([AEEA-AEEA-γGlu-C18‑OH])EFVNWLLAGGPSSGAPPPS-NH2 [Compound No. 60]	0.02
Y[Aib]EGTFTSDYSIYLDKIAAQEFVNWLLAGGPSSGAPPPSK([AEEA-AEEA-γGlu-C18‑OH])-NH2 [Compound No. 62]	0.045
B1	0.02
B2	0.021
B3	0.015
Y[Aib]EGTFTSDYSIYLEKIAAQEFVNWLLAGGPSSGAPPPSK([AEEA-AEEA-γGlu-C20‑OH])-NH2 [Compound No. 74]	0.046
Y[Aib]EGTFTSDYSIYLEKIAAK([AEEA-AEEA-γGlu-C20‑OH])EFVNWLLAGGPSSGAPPPS-NH2 [Compound No. 75]	0.16
